Consider two molecules from paper PMC5095173, “Disulfide-activated protein kinase G Iα regulates cardiac diastolic relaxation and fine-tunes the Frank–Starling response” (Nature Communications, 2016).

The test system of test [1] is PKGIα (analogue-sensitive C42S/M438G), cGMP-activated. The test can be described thus: Chemical genetic phosphoproteomic screen, cGMP-activated PKGIα C42S/M438G versus unactivated control. It is filed as biochemical, human PKGIα; substrates in rat heart homogenate. The gist of the method:
(§1)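 Substrates in rat left-ventricle homogenate (20 mg ml) are labelled by engineered Met438Gly PKGIα given a bulky N6-alkylated ATPγS analogue, either as disulfide-activated M438G (oxidized, DTT-free) or as cGMP-activated C42S/M438G. Covalent capture and LC–MS/MS identify sites relative to unactivated kinase.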

In test [2] the test system is PKGIα (analogue-sensitive M438G), disulfide-activated. The experiment in a line: Chemical genetic phosphoproteomic screen, disulfide-activated PKGIα M438G versus unactivated control. It is filed as biochemical, human PKGIα; substrates in rat heart homogenate. A digest of the protocol: as §1

B1: Wbp11 pS600 (protein, UniProt Q5PQQ2 1-641, looked up)
WW domain-binding protein 11: MGRRSTSSTKSGKFMNPTDQARKEARKRELKKNKKQRMMVRAAVLKMKDPKQIIRDMEKLDEMEFNPVQQPQLNEKVLKDKRKKLRETFERILRLYEKENPDIYKELRKLEVEYEQKRAQLSQYFDAVKNAQHVEVESIPLPDMPHAPSNILIQDIPLPGAQPPSILKKTSAYGPPTRAVSILPLLGHGVPRLPPGRKPPGPPPGPPPPQVLQMYGRKVGFALDLPPRRRDEDMLYSPELAQRGHDDDMSSTSEDDGYPEDMDQDKHDDSTEDSDTDRSDAESDGDEFGHRDDSERDNTEEKKSGLSVRFADMPGKSRKKKKNMKELTPLQAMMLRMAGQEIPEEGREVEEFSEEEDDDDSEDSEAEKPSQKQHKEDSHADGSSAASSQQQAPPQAVPPSQIQAPPMPGPPPLGPPPAPPLRPPGPPTGLPPGPPPGAPPFLRPPGMPGIRGPLPRLLPPGPPPGRPPGPPPGPPPGLPPGPPPRGPPPRLPPPAPPGIPPPRPGMMRPPLVPPLGPAPPGLFPPAPLPNPGVLSAPPSLIQRPKADDASAATIEKKATATISAKPQITNPKAEVTRFVPTALRVRRENKGATAVPQRRSEEDSAVPVAKAAPRSGPSVPVSVQTKDDVYEAFMKEMEGLL
modifications: phosphorylated at S600
Turning to B1, the log2 fold changes in test [1] (Group 1 (cGMP-activated) vs Group 3 (control)) came to 4.049; in test [2] (Group 2 (disulfide-activated) vs Group 3 (control)), 2.503.

B2: Pfkfb2 pS486 (protein, UniProt Q9JJH5 2-557, looked up)
6-phosphofructo-2-kinase/fruct …: SENSTFSTEDSSSSSYKPHASNLRRAGKKCSWASYMTNSPTLIVMIGLPARGKTYVSKKLTRYLNWIGVPTKVFNLGVYRREAVKSYKSYDFFRHDNEEAMKIRKQCALVALEDVKAYFTEESGQIAVFDATNTTRERRDMILNFAKQNAFKVFFVESVCDDPDVIAANILEVKVSSPDYPERNRENVMEDFLKRIECYKVTYQPLDPDNYDKDLSFIKVMNVGQRFLVNRVQDYIQSKIVYYLMNIHVHPRTIYLCRHGESEFNLLGKIGGDSGLSLRGKQFAQALKKFLEEQEIQDLKVWTSQLKRTIQTAESLGVTYEQWKILNEIDAGVCEEMTYSEIEQRYPEEFALRDQEKYLYRYPGGESYQDLVQRLEPVIMELERQGNVLVISHQAVMRCLLAYFLDKGADELPYLRCPLHIIFKLTPVAYGCKVETITLNVEAVDTHRDKPTHNFPKSQTPVRMRRNSFTPLSSSNTIRRPRNYSVGSRPLKPLSPLRALDMQEGADQPKTQVQQGSAQATEHLQKALEFANGHREVENVLAKHRRPSMASLTLLS
modifications: phosphorylated at S486
Take B2: the “log2 fold change cGMP vs Control” value in test [1] (control = PKGIα C42S/M438G) turned out to be 0.2997. Also, the “log2 fold change Disulfide vs Control” value in test [2] (control = PKGIα C42S/M438G) is listed as -0.4793.
